In the Immune Epitope Database (IEDB) one finds Kd data, which are given here for three sequences.

In experiment [1] the target is HLA-A*01:01. Kind of experiment: IEDB peptide-MHC binding, purified MHC/direct/fluorescence; filed as Kd, often an IC50 or EC50 that approximates it; ≥ and ≤ were set here for values at or beyond the usual limits of such assays.
The target in a further experiment is HLA-A*02:01. The experiment is described as above.
Experiment [2] addresses HLA-A*03:01. The experiment is described as above.
The target in experiment [3] is HLA-A*24:02. Described as above.
Experiment [4] deals with HLA-B*07:02. The experiment is described as above.
Experiment [5] addresses HLA-B*08:01. The experiment is described as above.
Another experiment has as its target HLA-B*08:02. The experiment is described as above.
Experiment [6] concerns the target HLA-B*15:01. The description is as above.
The next experiment has as its target HLA-B*18:01. The description is as above. The note with it: source organism: Influenza A virus (A/chicken/Vietnam/5/2003(H5N1)).
Experiment [7] addresses HLA-B*27:05. Described as above.
Experiment [8] deals with HLA-B*40:01. Described as above.
The next experiment deals with HLA-B*44:02. Described as above.
A further experiment concerns the target HLA-B*46:01. The experiment is described as above.
Experiment [9] deals with HLA-B*58:01. Described as above.
For experiment [10], the target named is HLA-A*01:01. Kind of experiment: IEDB peptide-MHC binding, purified MHC/competitive/fluorescence; filed as Kd, often an IC50 or EC50 that approximates it; ≥ and ≤ were set here for values at or beyond the usual limits of such assays. Particulars: source organism: Pseudomonas aeruginosa UCBPP-PA14.
The target in experiment [11] is HLA-A*03:01. The experiment is described as above. The note with it: source organism: Pseudomonas aeruginosa UCBPP-PA14.
Experiment [12] has as its target HLA-A*11:01. Described as above. The note with it: source organism: Pseudomonas aeruginosa UCBPP-PA14.
For experiment [13], the target named is HLA-A*24:02. Described as above. Particulars: source organism: Pseudomonas aeruginosa UCBPP-PA14.
Experiment [14] concerns the target HLA-A*26:01. The experiment is described as above. The note with it: source organism: Pseudomonas aeruginosa UCBPP-PA14.
Another experiment addresses HLA-A*30:01. The description is as above. Particulars: source organism: Pseudomonas aeruginosa UCBPP-PA14.
A further experiment concerns the target HLA-A*31:01. Described as above. Particulars: source organism: Pseudomonas aeruginosa UCBPP-PA14.
Experiment [15] addresses HLA-A*69:01. The description is as above. The note with it: source organism: Pseudomonas aeruginosa UCBPP-PA14.
Experiment [16] has as its target HLA-B*07:02. The description is as above. Particulars: source organism: Pseudomonas aeruginosa UCBPP-PA14.
In experiment [17] the target is HLA-B*08:01. The description is as above. Particulars: source organism: Pseudomonas aeruginosa UCBPP-PA14.
Experiment [18] deals with HLA-B*15:01. The description is as above. The note with it: source organism: Pseudomonas aeruginosa UCBPP-PA14.
Experiment [19] concerns the target HLA-B*27:05. The description is as above. The note with it: source organism: Pseudomonas aeruginosa UCBPP-PA14.
Experiment [20] has as its target HLA-B*40:01. Described as above. Particulars: source organism: Pseudomonas aeruginosa UCBPP-PA14.
The target of experiment [21] is HLA-B*58:01. The experiment is described as above. Particulars: source organism: Pseudomonas aeruginosa UCBPP-PA14.
The target in experiment [22] is HLA-A*11:01. Kind of experiment: IEDB peptide-MHC binding, purified MHC/direct/fluorescence; filed as Kd, often an IC50 or EC50 that approximates it; ≥ and ≤ were set here for values at or beyond the usual limits of such assays. Particulars: source organism: Influenza A virus (A/goose/Hong Kong/8/1976(H1N1)).
Experiment [23] addresses HLA-A*26:01. The description is as above. The note with it: source organism: Influenza A virus(A/swine/Shandong/fNY/2003(H9N2)).
The target in experiment [24] is HLA-A*69:01. The description is as above. Particulars: source organism: Influenza A virus (A/goose/Hong Kong/8/1976(H1N1)).
[25] abbreviates: source organism: Influenza A virus (A/chicken/Vietnam/5/2003(H5N1)).
Where [26] appears, read: source organism: Influenza A virus (A/Puerto Rico/8/34/Mount Sinai(H1N1)).
Setting [27] is: source organism: Influenza A virus (A/goose/Hong Kong/8/1976(H1N1)).

One may read the Kd as the concentration at which binding is half-saturated. Read a high Kd as weaker binding. Regarding QTYDWTLNR, the equilibrium dissociation constant (Kd) in the experiment with HLA-A*01:01 [1] (setting [25]) is at least 20 µM; with HLA-A*02:01 (setting [25]), at least 20 µM; with HLA-A*03:01 [2] (setting [26]) it was 0.376 µM; with HLA-A*24:02 [3] (setting [25]), at least 20 µM; in the experiment with HLA-B*07:02 [4] (setting [25]) it was at least 20 µM; in the experiment with HLA-B*08:01 [5] (setting [25]) it was at least 20 µM. The Kd in the experiment with HLA-B*08:02 (source organism: Influenza A virus(A/swine/Henan/3/2004(H9N2))), with HLA-B*15:01 [6] (setting [25]), with HLA-B*18:01, in the experiment with HLA-B*27:05 [7] (setting [25]), in the experiment with HLA-B*40:01 [8] (setting [25]) and with HLA-B*44:02 (setting [25]) was at least 20 µM in each case. In addition, the Kd with HLA-B*46:01 (setting [25]) and in the experiment with HLA-B*58:01 [9] (setting [25]) was at least 20 µM each time.
Regarding AVFDGCVVY, the Kd is at least 20 µM in the experiment with HLA-A*01:01 [10]; 0.291 µM with HLA-A*03:01 [11]; 0.0306 µM in the experiment with HLA-A*11:01 [12]; at least 20 µM with HLA-A*24:02 [13]; at least 20 µM in the experiment with HLA-A*26:01 [14]; at least 20 µM in the experiment with HLA-A*30:01. The Kd is 1.26 µM with HLA-A*31:01; at least 20 µM with HLA-A*69:01 [15]; at least 20 µM with HLA-B*07:02 [16]; at least 20 µM with HLA-B*08:01 [17]; 0.11 µM with HLA-B*15:01 [18]; at least 20 µM in the experiment with HLA-B*27:05 [19]. Also, the results for the Kd with HLA-B*40:01 [20] and with HLA-B*58:01 [21] were at least 20 µM and 1.12 µM, respectively.
For the sequence KTTYWWDGL, the Kd in the experiment with HLA-A*01:01 [1] (setting [27]), with HLA-A*02:01 (setting [27]), with HLA-A*03:01 [2] (setting [27]), in the experiment with HLA-A*11:01 [22], with HLA-A*24:02 [3] (setting [27]) and in the experiment with HLA-A*26:01 [23] was at least 20 µM each time. Moreover, the Kd with HLA-A*69:01 [24], with HLA-B*07:02 [4] (setting [27]), with HLA-B*08:01 [5] (setting [27]), with HLA-B*08:02 (source organism: Influenza A virus(A/swine/Shandong/fNY/2003(H9N2))), with HLA-B*15:01 [6] (setting [27]) and with HLA-B*27:05 [7] (setting [27]) was at least 20 µM throughout. In addition, the Kd with HLA-B*40:01 [8] (setting [26]) is at least 5 µM; in the experiment with HLA-B*44:02 (setting [27]), at least 20 µM; with HLA-B*46:01 (setting [27]), at least 20 µM; with HLA-B*58:01 [9] (setting [27]), at least 5 µM.
